Assay [1] has as its target T1, 蛋白B.
T1 construct: Counter-screen protein; also called FGF21-Fc融合蛋白
T1 chain: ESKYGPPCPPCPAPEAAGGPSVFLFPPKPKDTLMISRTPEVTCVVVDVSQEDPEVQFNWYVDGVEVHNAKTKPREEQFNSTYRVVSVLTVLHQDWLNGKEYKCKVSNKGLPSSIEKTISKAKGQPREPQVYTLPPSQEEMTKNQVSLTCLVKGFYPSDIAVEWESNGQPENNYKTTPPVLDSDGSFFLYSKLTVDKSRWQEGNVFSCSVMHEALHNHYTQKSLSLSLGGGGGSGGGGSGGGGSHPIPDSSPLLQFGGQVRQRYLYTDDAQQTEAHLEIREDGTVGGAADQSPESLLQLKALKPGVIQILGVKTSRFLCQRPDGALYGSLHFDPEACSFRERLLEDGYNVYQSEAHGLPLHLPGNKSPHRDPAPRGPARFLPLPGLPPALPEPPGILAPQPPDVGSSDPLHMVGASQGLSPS
Put plainly: sandwich ELISA, antibody coated at 2 μg/mL, detection with HRP mouse anti-human IgG4 Fc.

Assay [2] addresses T2, 蛋白A.
T2 construct: also called FGF21-Fc融合蛋白
T2 chain: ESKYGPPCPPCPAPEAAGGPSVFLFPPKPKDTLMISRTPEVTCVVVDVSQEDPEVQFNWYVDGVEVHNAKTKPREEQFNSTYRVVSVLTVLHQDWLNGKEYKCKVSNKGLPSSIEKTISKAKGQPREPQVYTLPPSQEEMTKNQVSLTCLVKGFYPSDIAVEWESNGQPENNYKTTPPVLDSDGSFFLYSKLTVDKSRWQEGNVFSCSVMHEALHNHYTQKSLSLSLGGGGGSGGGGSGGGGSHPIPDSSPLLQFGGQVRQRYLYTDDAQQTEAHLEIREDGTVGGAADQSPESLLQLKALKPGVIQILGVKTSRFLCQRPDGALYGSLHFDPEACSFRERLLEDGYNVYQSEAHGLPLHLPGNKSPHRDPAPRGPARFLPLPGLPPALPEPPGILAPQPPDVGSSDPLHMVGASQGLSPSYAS
Put plainly: sandwich ELISA, antibody coated at 2 μg/mL, protein at 5 and 10 ng/mL, detection with HRP mouse anti-human IgG4 Fc. Background: ELISA stands for enzyme-linked immunosorbent assay.

The target in assay [3] is T1, 蛋白B. Put plainly: ELISA, protein coated.
In assay [4] the target is T2, 蛋白A. Put plainly: ELISA, protein coated at 0.1, 1, 5 μg/mL, antibody 1 μg/mL.
Assay [5] addresses T2, 蛋白A. Put plainly: indirect ELISA, hybridoma supernatant on coated protein.
In assay [6] the target is T1, 蛋白B. The description is as above.

B1: MM21H (antibody, V domains shown)
VH: QIQLVQSGPELKKTGETVKMSCKASGYTFTNYGMNWVKQAPGKGLKLMGWINTYTGKPTYADDFKGRFAFSLETSASTAYLQINNLKNEDTATYFCATNYYDYDVAYWGQGTLVTVSA
VL: DIVMTQAAFSNPVTLGTSASISCRSSKSLLHSNGITYLYWFLQKPGQSPQVLIYQMSSLASGVPDRFSSSGSGTDFTLRISRVEAEDVGVYYCAQTLELPTFGGGTKLEIK
notes: also called MM21H鼠源单克隆抗体
As to B1, the binding result with 蛋白B [1] was “no binding (tested: 5ng/mL、10ng/mL)”; with 蛋白A [2] it was “binds”.

B2: MM24T (antibody, mouse IgG1, kappa, V domains shown)
VH: QIQLVQSGPELKKPGETVKISCKASGYTFTNYGMNWVKQAPGKGLKLMGWINTYTGKPTYADDFKGRFAFSLETSASTAYLQLNNLKNEDTATYFCATNYYDYDIAYWGQGTLVAVSA
VL: DIVMTQAAFSNPVTLGTSASISCRSSKSLLHSNGITYLYWFLQKPGQSPQVLIYQMSNLASGVPDRFSSSGSGTDFTLRISRVEAEDVGVYYCAQTLELPTFGGGTKLEIKR
notes: only the CDRs are; also called MM24T重组抗体; MM24T抗体
Turning to B2, the results for the binding result with 蛋白B [3] and with 蛋白A [4] were “no binding (tested: antibody 1μg/mL; coating 0.1、1、5μg/mL)” and “binds”, respectively.

B3: MM24H (antibody, V domains shown)
VH: QIQLVQSGPELKKPGETVKISCKASGYTFTNYGMNWVKQAPGKGLKLMGWINTYTGKPTYADDFKGRFAFSLETSASTAYLQLNNLKNEDTATYFCATNYYDYDIAYWGQGTLVAVSA
VL: DIVMTQAAFSNPVTLGTSASISCRSSKSLLHSNGITYLYWFLQKPGQSPQVLIYQMSNLASGVPDRFSSSGSGTDFTLRISRVEAEDVGVYYCAQTLELPTFGGGTKLEIK
notes: also called MM24H鼠源单克隆抗体
Consider B3, for which the binding result in the assay with 蛋白A [5] is “binds”; in the assay with 蛋白B [6], “no binding”.

B4: MM21T (antibody, mouse IgG1, kappa, V domains shown)
VH: QIQLVQSGPELKKTGETVKMSCKASGYTFTNYGMNWVKQAPGKGLKLMGWINTYTGKPTYADDFKGRFAFSLETSASTAYLQINNLKNEDTATYFCATNYYDYDVAYWGQGTLVTVSA
VL: DIVMTQAAFSNPVTLGTSASISCRSSKSLLHSNGITYLYWFLQKPGQSPQVLIYQMSSLASGVPDRFSSSGSGTDFTLRISRVEAEDVGVYYCAQTLELPTFGGGTKLEIKR
notes: only the CDRs are; also called MM21T重组抗体; MM21T抗体
B4: the binding result with 蛋白B [3] is on record as “no binding (tested: antibody 1μg/mL; coating 0.1、1、5μg/mL)”; in the assay with 蛋白A [4] it was “binds”.

The values are drawn from CN114685654A (GUANGDONG DONGSUNANG PHARMACEUTICAL CO LTD, dated 2022).
